Measured values from paper PMC6788056.

Substrate: NC(=O)c1ccc[n+]([C@@H]2O[C@H](COP(=O)([O-])OP(=O)(O)OC[C@H]3O[C@@H](n4cnc5c(N)ncnc54)[C@H](O)[C@@H]3O)[C@@H](O)[C@H]2O)c1
Assay: purified protein
Conditions: NAD^+ binding (NB) domain; varied: cofactor

Protein | K0.5
hUGDH (human UDP-glucose dehydrogenase) (Homo sapiens) (protein) MFEIKKICCIGAGYVGGPTCSVIAHMCPEIRVTVVDVNESRINAWNSPTLPIYEPGLKEVVESCRGKNLFFSTNIDDAIKEADLVFISVNTPTKTYGMGKGRAADLKYIEACARRIVQNSNGYKIVTEKSTVPVRAAESIRRIFDANTKPNLNLQVLSNPEFLAEGTAIKDLKNPDRVLIGGDETPEGQRAVQALCAVYEHWVPREKILTTNTWSSELSKLAANAFLAQRISSINSISALCEATGADVEEVATAIGMDQRIGNKFLKASVGFGGSCFQKDVLNLVYLCEALNLPEVARYWQQVIDMNDYQRRRFASRIIDSLFNTVTDKKIAILGFAFKKDTGDTRESSSIYISKYLMDEGAHLHIYDPKVPREQIVVDLSHPGVSEDDQVSRLVTISKDPYEACDGAHAVVICTEWDMFKELDYERIHKKMLKPAFIFDGRRVLDGLHNELQTIGFQIETIGKKVSSKRIPYAPSGEIPKFSLQDPPNKKPKV | 1094 ± 244 µM
cUGDH (C. elegans UDP-glucose dehydrogenase) (Caenorhabditis elegans) (protein) MTDQVFGKVSKVVCVGAGYVGGPTCAMIAHKCPHITVTVVDMNTAKIAEWNSDKLPIYEPGLDEIVFAARGRNLFFSSDIPKAIAEADLIFISVNTPTKMYGRGKGMAPDLKYVESVSRTIAQYAGGPKIVVEKSTVPVKAAESIGCILREAQKNNENLKFQVLSNPEFLAEGTAMKDLANPDRVLIGGESSPEGLQAVAELVRIYENWVPRNRIITTNTWSSELSKLVANAFLAQRISSINSISAVCEATGAEISEVAHAVGYDTRIGSKFLQASVGFGGSCFQKDVLSLVYLCESLNLPQVADYWQGVININNWQRRRFADKIIAELFNTVTDKKIAIFGFAFKKNTGDTRESSAIHVIKHLMEEHAKLSVYDPKVQKSQMLNDLASVTSAQDVERLITVESDPYAAARGAHAIVVLTEWDEFVELNYSQIHNDMQHPAAIFDGRLILDQKALREIGFRTFAIGTSPDQAYNLFGTAGY | 333 ± 18 µM
